Experimental data published in patent publication US20100286367.

Molecular target: T1, purified human Lys77-Plasminogen, P00747
T1 chain: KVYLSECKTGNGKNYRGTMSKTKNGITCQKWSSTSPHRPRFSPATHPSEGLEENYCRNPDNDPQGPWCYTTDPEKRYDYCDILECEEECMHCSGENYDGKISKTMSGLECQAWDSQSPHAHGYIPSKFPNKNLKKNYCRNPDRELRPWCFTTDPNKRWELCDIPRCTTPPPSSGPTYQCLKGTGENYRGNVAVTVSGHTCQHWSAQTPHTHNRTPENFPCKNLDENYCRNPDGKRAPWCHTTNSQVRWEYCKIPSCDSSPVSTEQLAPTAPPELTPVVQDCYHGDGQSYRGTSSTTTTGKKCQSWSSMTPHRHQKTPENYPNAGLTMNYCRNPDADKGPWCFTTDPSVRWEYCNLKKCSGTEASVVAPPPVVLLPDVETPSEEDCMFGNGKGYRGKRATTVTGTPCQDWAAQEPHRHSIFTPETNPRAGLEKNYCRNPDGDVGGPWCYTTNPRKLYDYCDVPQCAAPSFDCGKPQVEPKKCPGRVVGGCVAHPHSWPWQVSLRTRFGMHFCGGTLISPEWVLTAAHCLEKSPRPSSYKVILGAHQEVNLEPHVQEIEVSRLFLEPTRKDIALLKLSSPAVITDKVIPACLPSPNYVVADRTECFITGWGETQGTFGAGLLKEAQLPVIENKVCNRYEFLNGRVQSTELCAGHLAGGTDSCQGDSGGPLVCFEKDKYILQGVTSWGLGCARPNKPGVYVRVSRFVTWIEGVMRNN

B1: thiolated streptokinase (protein)
chain: IAGPEWLLDRPSVNNSQLVVSVAGTVEGTNQDISLKFFEIDLTSRPAHGGKTEQGLSPKSKPFATDSGAMSHKLEKADLLKAIQEQLIANVHSNDDYFEVIDFASDATITDRNGKVYFADKDGSVTLPTQPVQEFLLSGHVRVRPYKEKPIQNQAKSVDVEYTVQFTPLNPDDDFRPGLKDTKLLKTLAIGDTITSQELLAQAQSILNKNHPGYTIYERDSSIVTHDNDIFRTILPMDQEFTYRVKNREQAYRINKKSGLNEEINNTDLISEKYYVLKKGEKPYDPFDRSHLKLFTIKYVDVDTNELLKSEQLLTASERNLDFRDLYDPRDKAKLLYNNLDAFGIMDYTLTGKVEDNHDDTNRIITVYMGKRPEGENASYHLAYDKDRYTEEEREVYSYLRYTGTPIPDNPNDK
plasmin generated in the plasminogen activation assay (S-2251 amidolysis, SU/ml): thiolated SK (1 nM) generated plasmin at a nearly linear of 4225 SU/mL
